Numbering of substitutions follows the chain as printed. Bounds are passed on as bounds.

The text below walks through data of patent US20150118233A1.

Test [1] has as its target hRSV FTM- NN protein (membrane anchorless form of the Long fusion protein, 70 kDa) (hRSV strain Long). The experiment in a line: Alphascreen competition: FTM- NN (0.3 nM) bridged by biotinylated Synagis Fab and 101F Fab acceptor beads. In general terms: In Alpha technology, singlet oxygen from a donor bead excites a nearby acceptor bead.
Substrate in test [2]: F protein of hRSV strain Long (hRSV strain Long)
Kind of test: cell-based or functional assay.

Test [3] addresses hRSV FTM- NN protein (membrane anchorless form of the Long fusion protein, 70 kDa) (hRSV strain Long). The experiment in a line: competition ELISA on coated FTM- NN; competitor biotinylated Synagis Fab. On the technique in general: In an ELISA, binding on a coated surface is turned into a signal by an enzyme label.
Substrate in test [4]: F protein of hRSV strain Long (hRSV strain Long)
Kind of test: binding ELISA on coated hRSV (Hytest), anti-VHH detection.

Test [5] has as its target hRSV FTM- NN protein (membrane anchorless form of the Long fusion protein, 70 kDa) (hRSV strain Long). The experiment in a line: SPR (Biacore T100), FTM- NN amine-coupled, 1:1 Langmuir fit. Background: SPR reads the build-up and loss of mass on a sensor chip optically.
For test [6] the target is unchanged. The experiment in a line: binding ELISA on immobilised FTM- protein; detection with rabbit anti-VHH and HRP goat anti-rabbit.
Substrate in test [7]: F protein of Long escape mutant R7C2/1 (K272E in antigenic site II) (hRSV strain Long escape mutant)
The experiment in a line: ELISA on extract of HEp-2 cells infected with R7C2/1.

Test [8] concerns the target hRSV FTM- NN protein (membrane anchorless form of the Long fusion protein, 70 kDa) (hRSV strain Long). Kind of test: SPR (Biacore) on Ftm-NN protein; Table B-5 run (selected NC41 variants), separate from Table B-1.
For test [9] the target is unchanged. The experiment in a line: SPR (Biacore) on Ftm-NN protein.
Substrate in test [10]: F protein of hRSV strain B-1 (hRSV strain B-1)
Kind of test: cell-based or functional assay.

B1: Synagis® Fab (Fab, part only; not given: Constant regions, biotin sites, V domains shown, not shown: another chain or arm of the molecule)
VH: QVTLRESGPALVKPTQTLTLTCTFSGFSLSTSGMSVGWIRQPPGKALEWLADIWWDDKKDYNPSLKSRLTISKDTSKNQVVLKVTNMDPADTATYYCARSMITNWYFDVWGAGTTVTVSS
VL: DIQMTQSPSTLSASVGDRVTITCKCQLSVGYMHWYQQKPGKAPKLLIYDTSKLASGVPSRFSGSGSGTEFTLTISSLQPDDFATYYCFQGSGYPFTFGGGTKLEIK
Take B1: the IC50 in [1] turned out to be 0.597 nM.

B2: Nanobody NC23 (VHH)
VHH: EVQLVESGGGLVQPGGSLRLSCAASGRTFSSIAMGWFRQAPGKEREFVAAISWSRGRTFYADSVKGRFIISRDDAANTAYLQMNSLKPEDTAVYYCAVDTASWNSGSFIYDWAYDHWGQGTQVTVSS
As to B2, in [2], the RSV neutralization IC50 was 144 nM. In test [3], this molecule gave an EC50 of 2.3 nM. In addition, the 50% effective concentration (EC50) in test [4] came to 0.1 nM. In test [5], this molecule returned an equilibrium dissociation constant (Kd) of 0.92 nM, an off-rate constant (koff) of 0.00074 s⁻¹ and an association rate constant (kon) of 800000 M⁻¹ s⁻¹.

B3: RSV116 (NC41-15GS-NC41) (bispecific antibody)
chain: EVQLVESGGGLVQAGGSLSISCAASGGSLSNYVLGWFRQAPGKEREFVAAINWRGDITIGPPNVEGRFTISRDNAKNTGYLQMNSLAPDDTAVYYCGAGTPLNPGAYIYDWSYDYWGRGTQVTVSSGGGGSGGGGSGGGGSEVQLVESGGGLVQAGGSLSISCAASGGSLSNYVLGWFRQAPGKEREFVAAINWRGDITIGPPNVEGRFTISRDNAKNTGYLQMNSLAPDDTAVYYCGAGTPLNPGAYIYDWSYDYWGRGTQVTVSS
B3: the EC50 (read off the curve) in test [6] was found to be 0.3 nM.

B4: RSV106 (7B2-15GS-7B2) (VHH)
chain: EVQLVESGGGLVQAGDSLRLSCAASGRTFSSYAMGWFRQAPGKEREFVAAISWSDGSTYYADSVKGRFTISRDNAKNTVYLQMNSLKPEDTAVYYCAADLTSTNPGSYIYIWAYDYWGQGTQVTVSSGGGGSGGGGSGGGGSEVQLVESGGGLVQAGDSLRLSCAASGRTFSSYAMGWFRQAPGKEREFVAAISWSDGSTYYADSVKGRFTISRDNAKNTVYLQMNSLKPEDTAVYYCAADLTSTNPGSYIYIWAYDYWGQGTQVTVSS
Regarding B4, the binding (% reactivity relative to Long wild type) in test [7] turned out to be 4.4%.

B5: Nanobody 7B2 (VHH)
VHH: EVQLVESGGGLVQAGDSLRLSCAASGRTFSSYAMGWFRQAPGKEREFVAAISWSDGSTYYADSVKGRFTISRDNAKNTVYLQMNSLKPEDTAVYYCAADLTSTNPGSYIYIWAYDYWGQGTQVTVSS
Regarding B5, in [2], the RSV neutralization IC50 was determined as 91 nM. Besides, in test [3], the EC50 turned out to be 1.9 nM. Moreover, in [4], the EC50 amounted to 0.09 nM. Moreover, in test [5], the dissociation constant Kd was 1.1 nM, the koff is 0.00065 s⁻¹ and the kon amounted to 570000 M⁻¹ s⁻¹. Moreover, the concentration giving a half-maximal response (EC50 (read off the curve)) in [6] came out at 0.3 nM.

B6: Nanobody 15B3 (VHH)
VHH: EVQLVESGGGLVQPGGSLRLSCAASGLTLDYYALGWFRQAPGKEREGVSCISSSDHSTTYTDSVKGRFTISWDNAKNTLYLQMNSLKPGDTAVYYCAADPALGCYSGSYYPRYDYWGQGTQVTVSS
With B6, the binding (% reactivity relative to Long wild type) in test [7] is more than 75%. In addition, in test [4], the concentration for a half-maximal effect (EC50) was 0.058 nM. In test [5], the dissociation constant (Kd) was 0.67 nM, the koff worked out at 0.00027 s⁻¹ and the kon was 410000 M⁻¹ s⁻¹.

B7: RSV404 (15H8-15GS-15H8-15GS-15H8) (VHH)
chain: EVQLVESGGGLVQAGGSLRLSCAASGRSFSNYVLGWFRQAPGKEREFVAAISFRGDSAIGAPSVEGRFTISRDNAKNTGYLQMNSLVPDDTAVYYCGAGTPLNPGAYIYDWSYDYWGRGTQVTVSSGGGGSGGGGSGGGGSEVQLVESGGGLVQAGGSLRLSCAASGRSFSNYVLGWFRQAPGKEREFVAAISFRGDSAIGAPSVEGRFTISRDNAKNTGYLQMNSLVPDDTAVYYCGAGTPLNPGAYIYDWSYDYWGRGTQVTVSSGGGGSGGGGSGGGGSEVQLVESGGGLVQAGGSLRLSCAASGRSFSNYVLGWFRQAPGKEREFVAAISFRGDSAIGAPSVEGRFTISRDNAKNTGYLQMNSLVPDDTAVYYCGAGTPLNPGAYIYDWSYDYWGRGTQVTVSS
With B7, in test [6], the EC50 (read off the curve) was 0.3 nM.

B8: Nanobody NC41 (VHH)
VHH: EVQLVESGGGLVQAGGSLSISCAASGGSLSNYVLGWFRQAPGKEREFVAAINWRGDITIGPPNVEGRFTISRDNAKNTGYLQMNSLAPDDTAVYYCGAGTPLNPGAYIYDWSYDYWGRGTQVTVSS
Regarding B8, in test [2], the Neutralization IC50 (first assay) was 202 nM, the Neutralization IC50 (second assay) was 122 nM and the RSV neutralization IC50 was found to be 58 nM. In test [3], this molecule showed an EC50 of 32 nM. Also, in [8], the Kd turned out to be 4 nM. Further, the half-maximal effective concentration (EC50) in test [4] is 0.41 nM. In test [9], this molecule came in with a koff of 0.0067 s⁻¹ and a kon of 1.7e+06 M⁻¹ s⁻¹. In addition, in test [5], the dissociation constant (Kd) was found to be 8.1 nM, the koff amounted to 0.0067 s⁻¹ and the kon came to 820000 M⁻¹ s⁻¹. Moreover, the half-maximal effective concentration (EC50 (read off the curve)) in test [6] stood at 1 nM.

B9: Nanobody 191E4 (VHH)
VHH: EVQLVESGGGLVQAGGSLRLSCAASGPTFSADTMGWFRQAPGKEREFVATIPWSGGIAYYSDSVKGRFTMSRDNAKNTVDLQMNSLKPEDTALYYCAGSSRIYIYSDSLSERSYDYWGQGTQVTVSS
B9: in test [7], the binding (% reactivity relative to Long wild type) was more than 75%. Further, the concentration giving a half-maximal response (EC50) in test [4] worked out at 0.083 nM. In test [5], this molecule came in with an equilibrium dissociation constant (Kd) of 0.27 nM, a koff of 0.00015 s⁻¹ and a kon of 570000 M⁻¹ s⁻¹.

B10: Nanobody 191D3 (VHH)
VHH: EVQLVESGGGLVQAGGSLRLSCEASGRTYSRYGMGWFRQAPGKEREFVAAVSRLSGPRTVYADSVKGRFTISRDNAENTVYLQMNSLKPEDTAVYTCAAELTNRNSGAYYYAWAYDYWGQGTQVTVSS
Take B10: the RSV neutralization IC50 in test [2] amounted to 253 nM. The molecule also showed an EC50 in test [3] of 5.9 nM. The concentration for a half-maximal effect (EC50) in test [4] was 0.15 nM. In test [5], this molecule showed a dissociation constant (Kd) of 1.9 nM, an off-rate (koff) of 0.0028 s⁻¹ and a kon of 1.5e+06 M⁻¹ s⁻¹.

B11: Nanobody 1E4 (VHH)
VHH: B10 VHH with Y29F, R31S, S106P, A112T
As to B11, the RSV neutralization IC50 in [2] was found to be 380 nM. In test [3], this molecule yielded a concentration for a half-maximal effect (EC50) of 4.5 nM. For the same molecule, the 50% effective concentration (EC50) in test [4] was 0.066 nM. In test [5], this molecule yielded a dissociation constant (Kd) of 1.6 nM, a dissociation rate constant (koff) of 0.0013 s⁻¹ and a kon of 800000 M⁻¹ s⁻¹.

B12: RSV407 (NC41-15GS-NC41-15GS-NC41) (VHH)
chain: EVQLVESGGGLVQAGGSLSISCAASGGSLSNYVLGWFRQAPGKEREFVAAINWRGDITIGPPNVEGRFTISRDNAKNTGYLQMNSLAPDDTAVYYCGAGTPLNPGAYIYDWSYDYWGRGTQVTVSSGGGGSGGGGSGGGGSEVQLVESGGGLVQAGGSLSISCAASGGSLSNYVLGWFRQAPGKEREFVAAINWRGDITIGPPNVEGRFTISRDNAKNTGYLQMNSLAPDDTAVYYCGAGTPLNPGAYIYDWSYDYWGRGTQVTVSSGGGGSGGGGSGGGGSEVQLVESGGGLVQAGGSLSISCAASGGSLSNYVLGWFRQAPGKEREFVAAINWRGDITIGPPNVEGRFTISRDNAKNTGYLQMNSLAPDDTAVYYCGAGTPLNPGAYIYDWSYDYWGRGTQVTVSS
As for B12, the Neutralization IC50 worked out at 0.0941 nM in [2] and 0.66 nM in [10]. For the same molecule, the Neutralization, ratio to Synagis in test [2] was 59 fold; in test [10], 3 fold. Besides, the concentration giving a half-maximal response (EC50 (read off the curve)) in test [6] was 0.2 nM.

B13: Nanobody 15H8 (VHH)
VHH: EVQLVESGGGLVQAGGSLRLSCAASGRSFSNYVLGWFRQAPGKEREFVAAISFRGDSAIGAPSVEGRFTISRDNAKNTGYLQMNSLVPDDTAVYYCGAGTPLNPGAYIYDWSYDYWGRGTQVTVSS
As for B13, in test [2], the RSV neutralization IC50 turned out to be 200 nM. This molecule returned an EC50 in [3] of 39 nM. Besides, in test [4], the EC50 is 0.83 nM. Besides, in test [5], the Kd came to 16 nM, the koff is 0.021 s⁻¹ and the association rate constant (kon) is 1.2e+06 M⁻¹ s⁻¹. The molecule further gave an EC50 (read off the curve) in test [6] of 1 nM.

B14: RSV400 (7B2-15GS-7B2-15GS-7B2) (bispecific antibody)
chain: EVQLVESGGGLVQAGDSLRLSCAASGRTFSSYAMGWFRQAPGKEREFVAAISWSDGSTYYADSVKGRFTISRDNAKNTVYLQMNSLKPEDTAVYYCAADLTSTNPGSYIYIWAYDYWGQGTQVTVSSGGGGSGGGGSGGGGSEVQLVESGGGLVQAGDSLRLSCAASGRTFSSYAMGWFRQAPGKEREFVAAISWSDGSTYYADSVKGRFTISRDNAKNTVYLQMNSLKPEDTAVYYCAADLTSTNPGSYIYIWAYDYWGQGTQVTVSSGGGGSGGGGSGGGGSEVQLVESGGGLVQAGDSLRLSCAASGRTFSSYAMGWFRQAPGKEREFVAAISWSDGSTYYADSVKGRFTISRDNAKNTVYLQMNSLKPEDTAVYYCAADLTSTNPGSYIYIWAYDYWGQGTQVTVSS
Regarding B14, the binding (% reactivity relative to Long wild type) in test [7] was determined as 13%. In addition, the half-maximal effective concentration (EC50 (read off the curve)) in test [6] worked out at 0.3 nM.

By IC50 is commonly meant the concentration at which inhibition is half-maximal. Low readings indicate inhibition by little substance, high ones a need for much substance. For orientation: EC50 means the midpoint of the concentration-response curve. The term Kd denotes the constant that tells how readily two partners part at equilibrium. Low values mean tighter binding, high ones weaker binding. By koff is commonly meant the rate constant with which the complex falls apart. Higher therefore signals fast dissociation. Usually kon stands for a measure of how fast the partners come together. A high value points to fast association. As a reminder, the EC50 (read off the curve) is the concentration that produces a half-maximal response.
